Reference: publication PMC5634629, “Heterodimerization of two pore domain K^+ channel TASK1 and TALK2 in living heterologous expression systems” (PLoS ONE, 2017)
Each block holds one binder with its values, some of them ahead of it.

Legend:
CFP-TALK2 = molecular target: T1, CFP-TALK2 (human, UniProt Q96T54-3 1-332); experiment: FRET or BRET; acceptor photobleaching FRET (CFP donor, YFP acceptor) in HEK293 cells, confocal microscope; cDNA ratio CFP:YFP 1:1; E_FRET = percent increase in CFP emission after YFP photobleaching; conditions: partners not purified
T1 construct: human TALK2 (KCNK17), full-length cDNA NM_031460.3; The end of the tag is read from the order in the construct's name; also called KCNK17; source: HEK293, transiently transfected, in living cells; not shown: CFP, N-terminal, kept
T1 sequence (looked up): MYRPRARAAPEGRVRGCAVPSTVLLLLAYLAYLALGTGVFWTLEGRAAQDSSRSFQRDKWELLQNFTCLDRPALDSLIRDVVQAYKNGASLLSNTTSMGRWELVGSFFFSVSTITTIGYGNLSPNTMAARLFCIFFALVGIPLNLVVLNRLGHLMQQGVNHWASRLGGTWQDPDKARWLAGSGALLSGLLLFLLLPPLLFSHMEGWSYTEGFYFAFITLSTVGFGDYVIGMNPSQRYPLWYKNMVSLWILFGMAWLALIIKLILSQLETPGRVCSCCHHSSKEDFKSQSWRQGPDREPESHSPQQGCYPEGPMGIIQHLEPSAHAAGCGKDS

CFP-TASK1 = molecular target: T2, CFP-TASK1 (human, UniProt O14649 1-394); experiment: as above; conditions: partners not purified
T2 construct: human TASK1 (KCNK3), full-length cDNA NM_002246.2; The end of the tag is read from the order in the construct's name; also called KCNK3; source: HEK293, transiently transfected, in living cells; not shown: CFP, N-terminal, kept

- E_FRET (CFP-TALK2): 8.6%
B1: TALK2-YFP (natural protein, human, UniProt Q96T54-3 1-332, looked up)
chain: T1 sequence (looked up)
notes: human TALK2 (KCNK17), full-length cDNA NM_031460.3; The end of the tag is read from the order in the construct's name; also called KCNK17; source: HEK293, transiently transfected, in living cells; not shown: YFP, C-terminal, kept

- E_FRET (CFP-TALK2): 7.8%
- E_FRET (CFP-TASK1): 9.8%
B2: TASK1-YFP (natural protein, human, UniProt O14649 1-394, looked up)
chain: MKRQNVRTLALIVCTFTYLLVGAAVFDALESEPELIERQRLELRQQELRARYNLSQGGYEELERVVLRLKPHKAGVQWRFAGSFYFAITVITTIGYGHAAPSTDGGKVFCMFYALLGIPLTLVMFQSLGERINTLVRYLLHRAKKGLGMRRADVSMANMVLIGFFSCISTLCIGAAAFSHYEHWTFFQAYYYCFITLTTIGFGDYVALQKDQALQTQPQYVAFSFVYILTGLTVIGAFLNLVVLRFMTMNAEDEKRDAEHRALLTRNGQAGGGGGGGSAHTTDTASSTAAAGGGGFRNVYAEVLHFQSMCSCLWYKSREKLQYSIPMIIPRDLSTSDTCVEQSHSSPGGGGRYSDTPSRRCLCSGAPRSAISSVSTGLHSLSTFRGLMKRRSSV
notes: human TASK1 (KCNK3), full-length cDNA NM_002246.2; The end of the tag is read from the order in the construct's name; also called KCNK3; source: HEK293, transiently transfected, in living cells; not shown: YFP, C-terminal, kept
